Assay results published in patent publication EP4360658A1, “COMPOUNDS FOR DETECTION OF ORAL INFLAMMATION” (Julius-Maximilians-Universität Würzburg, priority 2022, dated 2024).
Values joined by “and” are separate entries in the source; they are usually repeats but may differ in a detail not shown here. Equal values may be shown once. *1 amine or outer side, *2 acyl side, *3 side chain or, on linkers, in order; H or OH if unused. Where a SMILES comes first, the peptide text is derived from it. Primed or numbered codes have the meaning given here. Where no end group is shown, it is not given here. [ ]: non-standard residue; d: D form. The star is where a group is joined. Aha′ = its azide, alkyne or alkene has reacted where a group follows in round brackets; Den = denatonium (bitter payload), attached at the C-terminus via CH2-NH2; DBCO‑Sulfo‑Cy5 = fluorescent dye clicked to Aha; AFDye488‑DBCO = fluorescent dye clicked to Aha; X1 = CC[N+](CC)(CC(=O)[*:2])Cc1ccc(CN[*:1])cc1; NH(2,6-Me2-phenyl) = Cc1cccc(C)c1N*

Key:
MMP-1 = biological target: T1, MMP-1 (Homo sapiens, UniProt P03956); test: Sensor cleavage by MMP-1; type: biochemical; settings: for cleavage rate (multiplexing): sensors in mixture, 17.5 nM MMP-1, incubation 15 minutes
T1 construct: purchased Merck Millipore
T1 sequence (P03956 100-469): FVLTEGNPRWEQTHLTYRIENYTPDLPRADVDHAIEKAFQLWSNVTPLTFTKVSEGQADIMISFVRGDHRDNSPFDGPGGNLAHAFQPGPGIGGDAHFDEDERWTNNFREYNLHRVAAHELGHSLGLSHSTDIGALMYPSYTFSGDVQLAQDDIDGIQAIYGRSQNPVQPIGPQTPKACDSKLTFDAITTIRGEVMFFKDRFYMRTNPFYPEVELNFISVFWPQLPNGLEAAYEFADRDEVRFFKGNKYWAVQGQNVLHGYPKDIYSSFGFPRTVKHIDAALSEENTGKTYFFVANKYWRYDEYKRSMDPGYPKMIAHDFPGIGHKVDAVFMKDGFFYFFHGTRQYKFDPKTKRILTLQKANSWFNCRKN
Protocol: (§1) Pro-Matrix-metalloproteinases (MMP-1, MMP-8, and MMP-9) (Merck Millipore, Burlington, MA, USA) were activated prior usage. To activate Pro-MMPs a fresh 50 mM 4-Aminophenylmercuric acetate (APMA) stock solution in 0.1 M NaOH was prepared. The stock solution was added in a 10:1 (v/v) ratio to Pro-MMPs (Pro-MMPs:APMA) to reach a final concentration of 5 mM APMA. The solution was incubated for 3 h at 37 °C without agitation. Following incubation, the activated MMPs were stored in aliquots at -80 °C.
Lyophilized sensors and Y3 were solubilized in MMP buffer (200 mM NaCl, 50 mM Tris-HCI, 5 mM CaCl2, 1 µM ZnCl2, 0.05 % Brij35 at pH 6.8-7.0) to 1 mM stock solutions. Cleavage was performed at 37 °C under rigorous shaking in 30 µL MMP buffer containing 0.1 mM of the respective sensor/peptide and 900 ng/mL MMP-8, or a molar equivalent of MMP-1 or MMP-9 for single cleavage conditions. Cleavage of sensors in mixture was performed with sensor concentrations of 25 µM for each sensor. The reaction was stopped via addition of 5 mM EDTA final concentration.
(§2) Experiments were performed n = 5. Cleavage was analyzed via fluorescent detection via HPLC with following wavelengths: SP3 (absorption: 646 nm; emission: 661 nm), SP5 (absorption: 494 nm; emission: 517 nm), SP7 (absorption: 553 nm; emission: 566 nm) and SN3 (absorption: 280 nm; emission: 350 nm). Y3 cleavage was analyzed as described before. Cleavage percent was analyzed by comparing the AUC of the main peak from the compound incubated with MMP and in absence of MMP. Cleavage percent was then normalized by multiplying cleavage results with a correction factor. The correction factor was determined individually for every experiment/MMP by dividing Y3 cleavage results acquired in protease sensitive linker identification study by cleavage results of Y3 in individual sensor cleavage experiments (Figure 3 D-F).

MMP-9 = biological target: T2, MMP-9 (Homo sapiens, UniProt P14780); test: Sensor cleavage by MMP-9; type: biochemical
T2 construct: purchased Merck Millipore
Protocol: as §1
(§3) Lyophilized sensors and Y3 were solubilized in MMP buffer (200 mM NaCl, 50 mM Tris-HCI, 5 mM CaCl2, 1 µM ZnCl2, 0.05 % Brij35 at pH 6.8-7.0) to 1 mM stock solutions. […]
as §2, with “Cleavage percent was then normalized by multiplying cleavage results with a correction factor.” left out

MMP-8 = biological target: T3, MMP-8 (Homo sapiens, UniProt P22894); test: Sensor cleavage by MMP-8; type: biochemical; settings: sensors in mixture, 17.5 nM MMP-8, incubation 15 minutes
T3 construct: purchased Merck Millipore
Protocol: as §1, §3
as §2, with “Cleavage percent was then normalized by multiplying cleavage results with a correction factor.” left out

[1] = Sensor cleavage in human saliva; type: biochemical; settings: for cleavage in saliva from patients compared to saliva from healthy donors: periodontitis patients vs. healthy donors
Protocol: Lyophilized sensors were solubilized in MMP buffer to 0.05 mM each and mixed with saliva 1:1 (v/v) to reach a final concentration of 25 µM per sensor. The solution was incubated for 15 min at 37 °C under rigorous shaking and the reaction was stopped via addition of 5 mM EDTA final concentration. The samples were diluted 1:2 with acetonitrile, 1:5 with water (1:10 total dilution) and analyzed via HPLC as described before. Cleavage efficiency was analyzed by comparing the AUC of the newly formed peaks compared to the total AUC of the combined peaks. Peaks with LU < 1 were considered below the limit of detection and set to 0.5 LU for further analysis.
The study participants were recruited from patients visiting the department of Periodontology of the University Hospital of Würzburg, Germany between Oct/2019 to Dec/2020. Periodontally healthy patients as well as patients with periodontal diseases of varying severity (gingivitis, periodontitis) were included. The periodontally diseased patients were in different stages of treatment (untreated patients before active initial therapy, treated recall patients in regular supportive aftercare). Eligibility criteria were age 18 to 99 years. Patients of both sexes, with and without periodontal disease were included in the study.
Periodontal examinations were obtained from all study participants comprising the documentation of missing teeth, probing pocket depths (PPD), recession, bleeding on probing (BoP), clinical attachment level (CAL), furcation involvement, tooth mobility and plaque control record (PlaCR). Demographic details and general health profile of the participants including current intake of medications and frequency of smoking was documented using a questionnaire. CAL, PPD and BoP were recorded at 6 sites per tooth (mesio-buccal, buccal, disto-buccal, disto-oral, oral, mesio-oral) using a pressure calibrated computer aided Florida Probe handpiece. Any bleeding spot appearing within 30 seconds after probing was recorded as a BoP-positive site. Furcation involvement was determined using a manual furcation probe (Nabers Probe). The total amount of periodontal inflammation present in each patient was calculated from the recorded BoP, CAL and PPD scores using the PISA-Index. Collected samples were quality-controlled hosted by the certified centralized biobank of the medical faculty of the University of Würzburg. […]
Saliva samples were prepared as above. The MMP-8 activity assay (Quickzyme, Leiden, Netherlands) was performed following provided protocols. In brief, reagents were prepared as described by protocols. […] Absorbance was measured at 405 nm in a microplate reader (Tecan Infinite F50, Crailsheim, Germany) at 0, 2, 4 and 6 h. […]

[2] = biological target: MMP mix (a mixture of MMPs 1, 8, and 9); test: cell-based or functional assay
[3] = control saliva samples, per patient, sensors in mixture, 25 µM per sensor, 15 min at 37 °C

T2 sequence (P14780 107-707 limits assumed): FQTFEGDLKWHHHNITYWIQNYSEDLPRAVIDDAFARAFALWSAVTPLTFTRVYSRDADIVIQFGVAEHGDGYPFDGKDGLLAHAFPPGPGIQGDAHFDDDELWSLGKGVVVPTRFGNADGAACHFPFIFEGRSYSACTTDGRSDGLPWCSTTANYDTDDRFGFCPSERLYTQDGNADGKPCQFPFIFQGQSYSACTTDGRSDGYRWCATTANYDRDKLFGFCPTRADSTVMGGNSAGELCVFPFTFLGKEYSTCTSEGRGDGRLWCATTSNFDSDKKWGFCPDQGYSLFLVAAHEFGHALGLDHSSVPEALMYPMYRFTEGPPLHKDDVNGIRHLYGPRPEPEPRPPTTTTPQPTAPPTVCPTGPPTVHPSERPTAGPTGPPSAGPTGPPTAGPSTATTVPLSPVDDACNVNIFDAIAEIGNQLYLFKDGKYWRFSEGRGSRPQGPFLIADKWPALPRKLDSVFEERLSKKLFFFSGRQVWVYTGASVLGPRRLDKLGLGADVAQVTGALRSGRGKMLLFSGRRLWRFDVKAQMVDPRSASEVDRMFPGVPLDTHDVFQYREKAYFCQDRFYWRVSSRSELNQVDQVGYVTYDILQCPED
T3 sequence (P22894 101-467): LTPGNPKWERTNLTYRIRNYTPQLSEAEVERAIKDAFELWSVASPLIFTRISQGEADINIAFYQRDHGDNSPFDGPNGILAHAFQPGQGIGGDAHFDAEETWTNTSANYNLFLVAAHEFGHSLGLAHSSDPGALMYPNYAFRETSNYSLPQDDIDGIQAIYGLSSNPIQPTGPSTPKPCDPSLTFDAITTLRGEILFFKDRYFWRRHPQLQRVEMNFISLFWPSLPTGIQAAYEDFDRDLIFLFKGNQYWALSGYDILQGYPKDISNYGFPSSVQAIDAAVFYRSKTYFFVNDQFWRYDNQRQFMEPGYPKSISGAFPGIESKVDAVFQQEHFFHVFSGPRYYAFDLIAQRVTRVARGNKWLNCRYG

CC[C@H](C)[C@H](NC(=O)CNC(=O)[C@H](CCC(N)=O)NC(=O)[C@@H]1CCCN1C(=O)CNC(=O)[C@H](CO)NC(=O)CNC(=O)[C@H](CO)NC(=O)CNC(C)=O)C(=O)N[C@@H](C)C(=O)NCC(=O)N[C@@H](C)C(=O)NCC(=O)N[C@@H](CO)C(=O)NCC(=O)N[C@@H](CO)C(=O)NCc1ccc(C[N+](CC)(CC)CC(=O)Nc2c(C)cccc2C)cc1 [S1, Ac-GSGS-GPQGIAGA-GSGS-Den] (Ac-GSGSGPQGIAGAGSGS[X1]-{NH(2,6-Me2-phenyl)})
maximum cleavage (MMP-1; MMP-1, 15 min, concentrations ranging from 1 to 10 nM): 7% | maximum cleavage (MMP-9; MMP-9, 15 min, concentrations ranging from 1 to 10 nM): 10%

SY3: sensor from PSL-Y3: Y3a with C-terminal L-azidohomoalanine clicked to fluorescent dye DBCO-Sulfo-Cy5 (Ac-GSGSGPLALVGAGSGS[Aha′](DBCO‑Sulfo‑Cy5))
cleavage rate (multiplexing) (MMP-1): cleaved most effectively | cleavage rate (multiplexing) (MMP-8): cleaved most effectively | Cleavage SY3 [1, 3]: 1.39% (2×) and 3.77% and 3.71% and 2.96% and 0.34% and 4.60% and 1.80% and 5.40% and 0.29% and 11.05% and 1.60% and 1.07% and 0.38% and 0.37% and 0.31% | cleavage in saliva from patients compared to saliva from healthy donors [1]: discriminated against periodontitis

SY5: sensor from PSL-Y5: Y5a with C-terminal L-azidohomoalanine clicked to fluorescent dye AFDye488-DBCO (Ac-GSGSGALELVGAGSGS[Aha′](AFDye488‑DBCO))
cleavage rate (multiplexing) (MMP-1): not MMP-1 or MMP-9 | cleavage rate (multiplexing) (MMP-8): responded to MMP-8 | cleavage rate (multiplexing) (MMP-9; sensors in mixture, 17.5 nM MMP-9, incubation 15 minutes): not MMP-1 or MMP-9 | Cleavage SY5 [1, 3]: 2.55% and 4.69% and 2.64% and 2.11% and 0.17% (2×) and 3.56% and 2.25% and 4.88% and 0.14% and 11.04% and 2.84% and 0.18% (2×) and 0.16% and 0.15% | cleavage in saliva from patients compared to saliva from healthy donors [1]: discriminated against periodontitis

Ac-GSGSGPQGIAGAGSGS-Den [Sensor S1, Ac-GSGS-GPQGIAGA-GSGS-Den]
cleavage rate (4 nM MMP mix, 5 min, HPLC) [2]: < 1% | cleavage rate (8 nM MMP mix, 5 min, HPLC) [2]: > 20%
